Test results published in US20230183349A1.

Target: PD1 aglycosylated at Asn58 (human) (UniProt Q15116)
Experiment: SPR Biacore T200, antibody captured by anti-human IgG, PD1-ECD as analyte, 25 °C, 1:1 Langmuir

B1: PD1-0103-0312 (antibody, V domains shown)
VH: EVQLLESGGGLVQPGGSLRLSCAASGFSFSSYTMSWVRQAPGKGLEWVATISGGGRDIYYPDSVKGRFTISRDNSKNTLYLQMNSLRAEDTAVYYCVLLTGRVYFALDSWGQGTLVTVSS
VL: DIVMTQSPDSLAVSLGERATINCKASESVDTSDNSFIHWYQQKPGQSPKLLIYRSSTLESGVPDRFSGSGSGTDFTLTISSLQAEDVAVYYCQQNYDVPWTFGQGTKVEIK
- Kd: 80.2 nM
- koff: 0.027 s⁻¹
- kon: 336000 M⁻¹ s⁻¹
